Experimental data taken from US5688488A, “Composition and method for tumor imaging” (priority 1995, dated 1997).
Read-outs that look alike come from different tables or passages of the source.

How the values were obtained:
[1] = test system: Subcutaneous KB Cell Tumors; conditions: mouse, in vivo, iv; for Tumor-to-Non-target Ratio: Tumor/blood / Tumor-to-Non-target Ratio: Tumor/kidney / Tumor-to-Non-target Ratio: Tumor/liver / Tumor-to-Non-target Ratio: Tumor/muscle: 240 min; for Percentage of Injected Dose per Gram of Tissue: Blood / Percentage of Injected Dose per Gram of Tissue: Heart / Percentage of Injected Dose per Gram of Tissue: Kidney / Percentage of Injected Dose per Gram of Tissue: Liver / Percentage of Injected Dose per Gram of Tissue: Lungs / Percentage of Injected Dose per Gram of Tissue: Muscle / Percentage of Injected Dose per Gram of Tissue: Tumor: 4 h
[2] = test system: KB cells; assay: Uptake of ^67 Ga-DF-folate complex by cultured KB cells; type: cell-based, human
Description: Cell Culture. KB cells, a human nasopharyngeal epidermal carcinoma cell line that greatly overexpresses the folate binding protein, were cultured continuously as a monolayer at 37° C. in a humidified atmosphere containing 5% CO2 in folate-deficient modified Eagle's medium (FDMEM) (a folate-free modified Eagle's medium supplemented with 10% (v/v) heat-inactivated fetal calf serum as the only source of folate) containing penicillin (50 units/mL), streptomycin (50 μg/mL), and 2 mM L-glutamine. The final folate concentration in the complete FDMEM is the physiological range (~2 nM). 48 h prior to each experiment, the cells were transferred to 35 mm culture dishes at 5×10^5 cells per dish and grown to ~80% confluent.
Because folate and its conjugates bind to cell surface receptors at 4° C., but are capable of endocytosis only at higher temperatures, it is possible to separately evaluate the kinetics of binding the internalization of folate by measuring the rates of folate conjugate uptake at the two temperatures. […] By the end of the 30 min incubation, binding approached to saturation with ~18% of the initial radioactivity found associated with a cell surface.
Incubation at 37° C., a temperature which permits both binding and endocytosis, yielded similar kinetic results, however, maximal uptake reached 32% of the total conjugate added. Presumably, the difference in magnitude of the two cellular uptake curves reflects the ability of the folate receptor to internalize the conjugate and then recycle to the cell surface in its unoccupied form. […] This latter result is consistent with the inability of the α-conjugate to compete with free folate for the cell surface receptor.
To verify the involvement of a cell surface folate receptor in mediating the uptake of ^67 Ga-DF-folate(γ), binding and internalization of the complex were evaluated as a function of the complex's concentration. Cellular uptake of ^67 Ga-DF-folate(γ) was concentration dependent at both 4° C. and 37° C., saturating at levels of 20% and 35% of the total radioactivity added, respectively.

[3] = test system: KB Tumors; conditions: mouse, in vivo, iv
[4] = test system: KB Tumors; assay: Biodistribution of ^125 I-RNase-Folate conjugate and ^125 I-RNase control following I.V. administration to athymic mice with KB tumors; conditions: folate-free diet
[5] = In vivo delivery to mice of ^125 I soybean trypsin inhibitor; conditions: 15 minutes after tail vein injection, perfused
Description: Mice (25 g) were then injected with either the biotinylated SBTI or the control SBTI by insertion of a hypodermic syringe containing a 25 gauge needle into the tail vein of the mouse. After 15 minutes, each mouse was sacrificed and then perfused with heparin-containing isotonic saline via the direct cardiac influx and efflux method.

## CC(=O)N([O-])CCCCCNC(=O)CCC(=O)N([O-])CCCCCNC(=O)CCC(=O)N([O-])CCCCCN.[67Ga+3] [^67 Ga-DF, reference compound]
[1]
  Tumor-to-Non-target Ratio: Tumor/blood: 3.9 ± 1.2
  Tumor-to-Non-target Ratio: Tumor/kidney: 0.08 ± 0.01
  Tumor-to-Non-target Ratio: Tumor/liver: 1.16 ± 0.10
  Tumor-to-Non-target Ratio: Tumor/muscle: 2.56 ± 0.15
  Percentage of Injected Dose per Gram of Tissue: Blood: 0.026 ± 0.009 % of injected dose per gram
  Percentage of Injected Dose per Gram of Tissue: Heart: 0.021 ± 0.002 % of injected dose per gram
  Percentage of Injected Dose per Gram of Tissue: Kidney: 1.26 ± 0.19 % of injected dose per gram
  Percentage of Injected Dose per Gram of Tissue: Liver: 0.082 ± 0.010 % of injected dose per gram
  Percentage of Injected Dose per Gram of Tissue: Lungs: 0.054 ± 0.010 % of injected dose per gram
  Percentage of Injected Dose per Gram of Tissue: Muscle: 0.037 ± 0.001 % of injected dose per gram
  Percentage of Injected Dose per Gram of Tissue: Tumor: 0.094 ± 0.004 % of injected dose per gram
[2]; controls
  uptake by the KB cells: did not show any significant uptake

## O=C([O-])CC(O)(CC(=O)[O-])C(=O)[O-].[67Ga+3] [^67 Ga-citrate, reference compound]
[1]
  Tumor-to-Non-target Ratio: Tumor/blood: 0.84 ± 0.19
  Tumor-to-Non-target Ratio: Tumor/kidney: 2.4 ± 0.3
  Tumor-to-Non-target Ratio: Tumor/liver: 2.3 ± 0.2
  Tumor-to-Non-target Ratio: Tumor/muscle: 5.4 ± 0.7
  Percentage of Injected Dose per Gram of Tissue: Blood: 13.5 ± 3.2 % of injected dose per gram
  Percentage of Injected Dose per Gram of Tissue: Heart: 3.4 ± 0.2 % of injected dose per gram
  Percentage of Injected Dose per Gram of Tissue: Kidney: 4.6 ± 0.4 % of injected dose per gram
  Percentage of Injected Dose per Gram of Tissue: Liver: 4.7 ± 0.3 % of injected dose per gram
  Percentage of Injected Dose per Gram of Tissue: Lungs: 9.1 ± 2.7 % of injected dose per gram
  Percentage of Injected Dose per Gram of Tissue: Muscle: 2.04 ± 0.29 % of injected dose per gram
  Percentage of Injected Dose per Gram of Tissue: Tumor: 10.9 ± 0.2 % of injected dose per gram
[2]; 37° C., 30 min
  cell-associated ^67 Ga radioactivity, fold lower than ^67 Ga-DF-folate(γ): 106 fold

B1: ^125 I-RNase-Folate: ^125 I labeled ribonuclease-folate conjugate (conjugate, UniProt P61823 27-150, looked up)
Ribonuclease pancreatic: KETAAAKFERQHMDSSTSAASSSNYCNQMMKSRNLTKDRCKPVNTFVHESLADVQAVCSQKNVACKNGQTNCYQSYSTMSITDCRETGSSKYPNCAYKTTQANKHIIVACEGNPYVPVHFDASV
modifications: 125I label; folate conjugated
[3]; 1 h
  Percentage of Injected Dose per Gram: Blood: 5.34 ± 1.07 % of injected dose per gram
  Percentage of Injected Dose per Gram: Bone: 3.20 ± 0.23 % of injected dose per gram
  Percentage of Injected Dose per Gram: Heart: 2.01 ± 0.22 % of injected dose per gram
  Percentage of Injected Dose per Gram: Intestines: 2.03 ± 0.28 % of injected dose per gram
  Percentage of Injected Dose per Gram: Kidney: 16.08 ± 2.76 % of injected dose per gram
  Percentage of Injected Dose per Gram: Liver: 9.78 ± 1.11 % of injected dose per gram
  Percentage of Injected Dose per Gram: Lungs: 4.19 ± 0.61 % of injected dose per gram
  Percentage of Injected Dose per Gram: Muscle: 1.73 ± 0.32 % of injected dose per gram
  Percentage of Injected Dose per Gram: Spleen: 9.94 ± 1.37 % of injected dose per gram
  Percentage of Injected Dose per Gram: Stomach: 21.07 ± 2.57 % of injected dose per gram
  Percentage of Injected Dose per Gram: Testes: 1.50 ± 0.18 % of injected dose per gram
  Percentage of Injected Dose per Gram: Tumor: 5.35 ± 0.54 % of injected dose per gram
[3]; 60 min
  Tumor/Blood: 1.02 ± 0.16
  Tumor/Muscle: 3.14 ± 0.43
[3]; 4 h
  Percentage of Injected Dose per Gram: Blood: 2.30 ± 0.62 % of injected dose per gram
  Percentage of Injected Dose per Gram: Bone: 1.17 ± 0.28 % of injected dose per gram
  Percentage of Injected Dose per Gram: Heart: 0.93 ± 0.39 % of injected dose per gram
  Percentage of Injected Dose per Gram: Intestines: 0.95 ± 0.16 % of injected dose per gram
  Percentage of Injected Dose per Gram: Kidney: 5.11 ± 1.27 % of injected dose per gram
  Percentage of Injected Dose per Gram: Liver: 3.29 ± 0.77 % of injected dose per gram
  Percentage of Injected Dose per Gram: Lungs: 1.97 ± 0.77 % of injected dose per gram
  Percentage of Injected Dose per Gram: Muscle: 0.98 ± 0.54 % of injected dose per gram
  Percentage of Injected Dose per Gram: Spleen: 2.78 ± 0.73 % of injected dose per gram
  Percentage of Injected Dose per Gram: Stomach: 26.45 ± 8.05 % of injected dose per gram
  Percentage of Injected Dose per Gram: Testes: 1.0 ± 0.15 % of injected dose per gram
[3]; 1440 min
  Tumor/Blood: 11.88 ± 3.71
  Tumor/Muscle: 32.6 ± 6.7
[3]; 24 h
  Percentage of Injected Dose per Gram: Blood: 0.04 ± 0.01 % of injected dose per gram
  Percentage of Injected Dose per Gram: Bone: 0.09 ± 0.03 % of injected dose per gram
  Percentage of Injected Dose per Gram: Heart: 0.024 ± 0.006 % of injected dose per gram
  Percentage of Injected Dose per Gram: Intestines: 0.05 ± 0.006 % of injected dose per gram
  Percentage of Injected Dose per Gram: Kidney: 0.72 ± 0.07 % of injected dose per gram
  Percentage of Injected Dose per Gram: Liver: 0.38 ± 0.03 % of injected dose per gram
  Percentage of Injected Dose per Gram: Lungs: 0.04 ± 0.01 % of injected dose per gram
  Percentage of Injected Dose per Gram: Muscle: 0.013 ± 0.002 % of injected dose per gram
  Percentage of Injected Dose per Gram: Spleen: 0.23 ± 0.04 % of injected dose per gram
  Percentage of Injected Dose per Gram: Stomach: 0.26 ± 0.14 % of injected dose per gram
  Percentage of Injected Dose per Gram: Testes: 0.021 ± 0.004 % of injected dose per gram
  Percentage of Injected Dose per Gram: Tumor: 0.41 ± 0.02 % of injected dose per gram
[4]; 1 hour after i.v.
  Percentage of Injected Dose per Gram: Brain: 0.29 ± 0.04 % of injected dose per gram
[4]; 4 hours after i.v.
  Percentage of Injected Dose per Gram: Brain: 0.19 ± 0.14 % of injected dose per gram
[4]; 24 hours after i.v.
  Percentage of Injected Dose per Gram: Brain: 0.007 ± 0.001 % of injected dose per gram

B2: ^125 I-RNase: ^125 I labeled ribonuclease (lacking folate), control (protein, UniProt P61823 27-150, looked up)
Ribonuclease pancreatic: KETAAAKFERQHMDSSTSAASSSNYCNQMMKSRNLTKDRCKPVNTFVHESLADVQAVCSQKNVACKNGQTNCYQSYSTMSITDCRETGSSKYPNCAYKTTQANKHIIVACEGNPYVPVHFDASV
modifications: 125I label
[4]; 1 hour after i.v.
  Percentage of Injected Dose per Gram: Brain: 0.19 ± 0.06 % of injected dose per gram
[4]; 4 hours after i.v.
  Percentage of Injected Dose per Gram: Brain: 0.06 ± 0.004 % of injected dose per gram
[4]; 24 hours after i.v.
  Percentage of Injected Dose per Gram: Brain: 0.0055 ± 0.0006 % of injected dose per gram

B3: Control SBTI: ^125 I soybean trypsin inhibitor left as an unmodified control (protein, UniProt P01070 25-205, looked up)
Trypsin inhibitor A: DFVLDNEGNPLENGGTYYILSDITAFGGIRAAPTGNERCPLTVVQSRNELDKGIGTIISSPYRIRFIAEGHPLSLKFDSFAVIMLCVGIPTEWSVVEDLPEGPAVKIGENKDAMDGWFRLERVSDDEFNNYKLVFCPQQAEDDKCGDIGISIDHDDGTRRLVVSKNKPLVVQFQKLDKESL
modifications: 125I label
[5]
  Counts per minute/gram wet weight: Brain: 0 Counts per minute/gram wet weight
  Counts per minute/gram wet weight: Heart: 0 Counts per minute/gram wet weight
  Counts per minute/gram wet weight: Intestine: 0 Counts per minute/gram wet weight
  Counts per minute/gram wet weight: Kidney: 5152 Counts per minute/gram wet weight
  Counts per minute/gram wet weight: Liver: 535 Counts per minute/gram wet weight
  Counts per minute/gram wet weight: Lung: 107 Counts per minute/gram wet weight
  Counts per minute/gram wet weight: Muscle: 0 Counts per minute/gram wet weight
